Assay results taken from the DeepSol protein solubility set.

Assay: soluble on expression in E. coli; label from the status in PepcDB or PDB records

| Sequence | soluble on expression in E. coli |
| --- | --- |
| MLSAKGPQMRAFTQRVAAFSTQLQIDPIPIVFVGKGTTPRQNSLLGPNDSQYPFQGDVSFAHKPLSIRQQVENSKIERVMDDTEHNLINLLSNTNIEVDRTHLAQLKEEAMEEIQANAADVEIELSAIEAPKLLKKEMKYLFPQMETQKMNNVTVFNLTQKSEFDMKAWSEAMEEEREKLTASFIMSANAICSTLHRFGYWADFIDPSSGRPYMGDYTNHTLFETNDAYKQMGFKIEDLGCCKVLQHACWGSNAFVGTIFTDAPVDGDAVRDILKKVTQEIDE | not soluble |
| MLSEETIRVIKSTVPLLKEHGTEITARMYELLFSKYPKTKELFAGASEEQPKKLANAIIAYATYIDRLEELDNAISTIARSHVRRNVKPEHYPLVKECLLQAIEEVLNPGEEVLKAWEEAYDFLAKTLITLEKKLYSQP | soluble |
| MLSGVGAPVGKQMLAGTEVAAMQINKAGGLLGREVELVIRDDKYNSSESVAVARELAGDGINLLLGGSQTVTALGLAPLAPELNMAVMIVAAAGMPVTHELFNPNIFRATANNYTQYSSLGRVLIEQNPDVRTWVSLAPDGDFGRDSALFFGKAVEKYAPGEKPTVLDTIYTQATATDFRTQINQLMSSDAEGLYIGIAASAQISFFQQARSVGLYDKFKAIGEVGNGDITGKAMGRNTHPNLWSVCHWIYNAEPFASNPVSKQLYEDYVTLKGDEMPSAQVAAGHRAAMAIFEGIRAAGSTETEAVLAAIEDVEFETVGGPVSFRKEDHQLVNTNYYSQMGPSREEPFFAFNKVVSIDAAEMIEPATPGKAFDISELPQLEHHHHHH | not soluble |
| MLSRSAKPVAPNSPLMALLPYSFNRPINVLVMGLDQSETGEQAEKFDTRSDTLLLLRFDPLEGTTSLLSIPRDTQVAIPGYGTTKINAANVFGGPALAADVVSRTLNDVPIDRYLRIDTTAFKELVDLVGGVEVYVPKPMRYTDNTQKLYIDLPAGRQTLNGDQAEQFARFRYDELGDIGRVQRQQMLLRALREKLANPLILTKAPDLVKVLQKYVDTNLSFEELMALVSIGLQQDLANIRMVMLPGRPIMQDDVSYWRLDEGARDRLVSDFFNQISIQPIDRLAFEDLRVAIQDSSGKPEAAQALAESLAKLGIRRVYIIEDWPEPLEKTQIIAQRGDLIQAEGLQQQLNLGEVRASSDGDIGSDLTIRIGQDWQPTPSPKPLEHHHHHH | soluble |
| MLSVGRGIADITGEAADCGMLGYGKSDQRTAGIHQRLRSRAFVFRDDSQDGDARLLLIVAELPLPMQNVNEEVLRRLADLYGDTYSEQNTLITATHTHAGPGGYCGYLLYNLTTSGFRPATFAAIVDGIVESVEHAHADVAPAEVSLSHGELYGASINRSPSAFDRNPPADKAFFPKRVDPHTTLVRIDRGEATVGVIHFFATHGTSMTNRNHLISGDNKGFAAYHWERTVGGADYLAGQPDFIAAFAQTNPGDMSPNVDGPLSPEAPPDREFDNTRRTGLCQFEDAFTQLSGATPIGAGIDARFTYVDLGSVLVRGEYTPDGEERRTGRPMFGAGAMAGTDEGPGFHGFRQGRNPFWDRLSRAMYRLARPTAAAQAPKGIVMPARLPNRIHPFVQEIVPVQLVRIGRLYLIGIPGEPTIVAGLRLRRMVASIVGADLADVLCVGYTNAYIHYVTTPEEYLEQRYEGGSTLFGRWELCALMQTVAELAEAMRDGRPVTLGRRPRPTRELSWVRGAPADAGSFGAVIAEPSATYRPGQAVEAVFVSALPNNDLRRGGTYLEVVRREGASWVRIADDGDWATSFRWQRQGRAGSHVSIRWDVPGDTTPGQYRIVHHGTARDRNGMLTAFSATTREFTVV | soluble |
| MLTALKTDTGKIRQHNEDDAGIFKGKDEFILAVVADGMGGHLAGDVASKMAVKAMGEKWNEAETIPTAPSECEKWLIEQILSVNSKIYDHAQAHEECQGMGTTIVCALFTGKTVSVAHIGDSRCYLLQDDDFVQVTEDHSLVNELVRTGEISREDAEHHPRKNVLTKALGTDQLVSIDTRSFDIEPGDKLLLCSDGLTNKVEGTELKDILQSDSAPQEKVNLLVDKANQNGGEDNITAVLLELALQVEEGEDQC | soluble |
| MLTLYTSPSCTSCRKARAWLQEHEIPFKERNIFSEPLNIEELKAILIMTEDGTEEIISTRSKVFQKLNMDLDELPLQDLLELVQENPGLLRRPIMIDEKRLQVGFNEDEIRRFLPRDVRQLELRQAQLMAGL | soluble |
| MLTSEQVKAMIEGVAKCEHIEVEGDGHHFFAVIVSSEFEGKARLARHRLIKDGLKAQLESNELHALSISVAATPAEWAAKAQ | not soluble |
| MLTYYRDLFSLKLASCLDMEYSSFENATKINFREFFPEARSLTFSKKPDAKQGMQGGGMLKMLIDEKETIFYIKAFTGLNEENAIKLNELVVCKILHRMGKGPNYWFYINNHFSKKAVYMASKEVVGCG | not soluble |
| MLVAERHEKIIALVTEKGSVRVSELSQLFNVTEETIRRDLEKLESERKLQRSHGGAVSIKEDTEAPYFEREIRNVNEKQAVAAQAVTYVTTNDRIILDASTTAWYMAKRLPDVPLTVLTNSMKVAMELAKREKITVITVGGTLLRKSLSFVGPQTNQTLELYHVNKAFISCQGVHAKRGISDSNEMQALVKQKMIDISDHVFLLADHTKFGKQAFSRITSMETIDTIITDSKTSEEQISDFQELEMDVIRALEHHHHHH | soluble |
| MLVAQHTVYFPDAFLTQMREAMPSTLSFDDFLAACQRPLRRSIRVNTLKTSVADFLRLTAPYGWTLTPIPWCEEGFWIERDDEDALPLGSTAEHLSGLFYIQEASSMLPVAALFADGNAPQRVMDVAAAPGSKTTQIAARMNNEGAILANEFSASRVKVLHANISRCGISNVALTHFDGRVFGAALPEMFDAILLDAPCSGEGVVRKDPDALKNWSPESNQEIAATQRELIDSAFHALRSGGTLVYSTCTLNREENESVCLWLKETYPDAVEFLPLGDLFPGANKALTEEGFLHVFPQIYDCEGFFVARLRKTQAIPALPTPKYKVGNFPFSPVKDREAAQIRQAAASVGLNWDGNLRLWQRDKEVWLFPVGIEALIGKVRFSRLGIKLAETHNKGYRWQHEAVIALASPDNENAFELTPQEAEEWYRGRDVYPQAAPVADDVLVTFQHQPIGLAKRIGSRLKNSYPRELVRDGKLFTSNA | soluble |
| MLVAYDSMTGNVKRFIHKLNMPAVQIDEDLVIDEDFILITYTTGFGNVPERVLDFLERNNEKLKGVSASGNRNWGDMFGASADKISTKYEVPIVSKFELSGTNNDVEYFKERVREIATH | soluble |
| MLVGLDIGTSKIVAIVAEVLEDGQLNIVGMGHTPSRGLKRGMVVNIESTVQAIQRALEEAELMADCKIHEVFVGIAGSHIKSVNSHGMVAIKDREVTKMDIDRVIETARAVTIPPDH | not soluble |
| MLVLGGISLFLFMVKQNEKAMLNQEKERAAVVLADNETRVLFFYKDTCADCQKVYPTVYEEDQGENNIVFINLNQPKNRHYIKTYTLEKVPTFVTPKRRYVGTDTRKIQQLIAENNDERSEDLEHHHHHH | not soluble |
| MLVLNPFSEKAVSPEDRDMVLRRGIAALDCSWKKVKKSSVIFQTARNHRSLPFLVAANPTNYGKPCILSTAEAVAATLYIVGLKDIASDIMSYFKWGPHFLDLNRELLEAYSRAENSLEVVEIQKKFIGGLEHHHHHH | soluble |
| MLVMIDTKRPPVYIDSQVGLNTFFFIRGQYPSLNLFVSFITTVKTLGNNVSRTHGDDAESDCVCDSVSNVDENNEVVDEQDDVEDDKTDEDEEEGDNEDGDGYDAY | not soluble |
| MLVQGAGGNTSIKQAGVLWIKASGTWLKNARDDEIMVPVALAPLLDAVSHRSPAAEAAGQFTLADLNPRQLRPSIETTVHALLPQKIVVHVHCVETISIAVQANAEALLEGRLRGLDWAFVPYRRPGLPLAQAIAERLKPATNVLVLGNHGLVVAADTVAEAALLLQRVTGLLARQPRPAPPPDLDALLRLAAGSDYRLPALEHHHHHH | soluble |
| MLVTGLEILRKARAEGYGVGAFNTNNMEFTQAILEAAEEMKSPVILALSEGAMKYGGRALTRMVVALAQEARVPVAVHLDHGSSYESVLKALREGFTSVMIDKSHEDFETNVRETKRVVEAAHAVGVTVEAELGRLAGIEEHVAVDEKDALLTNPEEARIFMERTGADYLAVAIGTSHGAYKGKGRPFIDHPRLARIAELVPAPLVLHGASAVPQELVERFRAAGGEIGEASGIHPEDIKKAISLGIAKINTDTDLRLAFTALVRETLGKNPKEFDPRKYLGPAREAVKEVVKSRMELFGSVGRA | soluble |
| MLYKSSLAVAISALIAGQVSAAGFQVAEHSASGLGRAFSGEAAVADNASVLARNPAAMMLFETAQFSGALSIVDPEVNVDDLSNNQSMKDVAPLQIVPAAYYIRPINDQWAWGLAMFTTYGVATDYPNEIYAGDLAGDTSLISVNLNPNIAYRVNPELSLGFGLDLVAAKAKLTRHKGGLAPFMGGGNPSDNLIGMTGETLALGWNIGALYELDEQNRIGFGYRSRVKLNFDDGEFSSYDSGIATSAVVPGQLKIELPAIWELSGFHQLNEQWAVHYSYQQTDWSSFEELTATSSQCKNGTCFQKIEQYQDNGRWSVGATYTLNTTWTLRAGLAFDEQAGKATLSIPDSDRFWYSAGLTYTLTPQLTMDAGFALVQSRKGSFTEKNQIGQNLQFESEAVAYISALQFNYRFH | not soluble |
| MLYVLNKCNGLESVEIIHYNNETTDMKELVENPIIVNCKQVTISTVGGMYGSRELLMNFQIERLISGDSAIGTRFRQGSYEPDHVMSLVNSCFKDRVVNFQDHQGLRLRTDNLAKQILVKKCCRDDFEFEWGVSCRVIPSNLQDIDFEEDWPIWTDIDSDEDCDYSSDDEYEYQYNSDSD | not soluble |
| MMAAREQRSFRQLSLLRQFEGQSLLCASMNIPGPIKCSESLNKTFQSIINLVKEDLRGRIIFEREVHQKTGWEYYCLSDLPVSELKTKMIAIETKISIGRLMDLDVLHLVNGIPQPISRQELGFPRRQCYICQNDAKVCSRSRKHSVIEMQEAIAKFIKINH | not soluble |
| MMDASKELQVLHIDFLNQDNAVSHHTWEFQTSSPVFRRGQVFHLRLVLNQPLQSYHQLKLEFSTGPNPSIAKHTLVVLDPRTPSDHYNWQATLQNESGKEVTVAVTSSPNAILGKYQLNVKTGNHILKSEENILYLLFNPWCKEDMVFMPDEDERKEYILNDTGCHYVGAARSIKCKPWNFGQFEKNVLDCCISLLTESSLKPTDRRDPVLVCRAMCAMMSFEKGQGVLIGNWTGDYEGGTAPYKWTGSAPILQQYYNTKQAVCFGQCWVFAGILTTVLRALGIPARSVTGFDSAHDTERNLTVDTYVNENGEKITSMTHDSVWNFHVWTDAWMKRPDLPKGYDGWQAVDATSQERSQGVFCCGPSPLTAIRKGDIFIVYDTRFVFSEVNGDRLIWLVKMVNGQEELHVISMETTSIGKNISTKAVGQDRRRDITYEYKYPEGSSEERQVMDHAFLLLSSEREHRRPVKENFLHMSVQSDDVLLGNSVNFTVILKRKTAALQNVNILGSFELQLYTGKKMAKLCDLNKTSQIQGQVSEVTLTLDSKTYINSLAILDDEPVIRGFIIAEIVESKEIMASEVFTSFQYPEFSIELPNTGRIGQLLVCNCIFKNTLAIPLTDVKFSLESLGISSLQTSDHGTVQPGETIQSQIKCTPIKTGPKKFIVKLSSKQVKEINAQKIVLITK | soluble |
| MMGCMMIYNPKQLANHLKLIRTKHNLTQTELAKKVGVKQSTLSSFENHPETTQLQTLFKILHALEVHCIIQEQVPASHEDNLDDEAW | not soluble |
| MMGFSFYFFNEERYKMDKKDYKINKQNATAAKQQPLSPAAQRALNEAEERRKHETNEEKPLENGGRGGKDPSRYGDWEIKGRAIDFLEHHHHHH | not soluble |
